How the values were obtained:
[1] = biological target: B2 receptor tagged with Rluc8 (B2-Rluc8) (human) (UniProt P30411); experiment: FRET or BRET; BRET1/eBRET in live HEK293FT cells, one BRET-tagged receptor and one BRET-tagged interacting protein coexpressed, no second receptor; ligand-induced BRET after AngII or BK, 37°C
[2] = biological target: T1, Venus-tagged B2 receptor (B2-Venus) (human, UniProt P30411 1-391); experiment: as above; details: partners not purified
T1 construct: made by replacing the Rluc8 coding region of B2-Rluc8 with Venus cDNA; C-terminal end of the tag follows from the parent B2-Rluc8; source: HEK293FT, transiently transfected, in live cells; not shown: Venus, C-terminal, kept
T1 sequence (looked up): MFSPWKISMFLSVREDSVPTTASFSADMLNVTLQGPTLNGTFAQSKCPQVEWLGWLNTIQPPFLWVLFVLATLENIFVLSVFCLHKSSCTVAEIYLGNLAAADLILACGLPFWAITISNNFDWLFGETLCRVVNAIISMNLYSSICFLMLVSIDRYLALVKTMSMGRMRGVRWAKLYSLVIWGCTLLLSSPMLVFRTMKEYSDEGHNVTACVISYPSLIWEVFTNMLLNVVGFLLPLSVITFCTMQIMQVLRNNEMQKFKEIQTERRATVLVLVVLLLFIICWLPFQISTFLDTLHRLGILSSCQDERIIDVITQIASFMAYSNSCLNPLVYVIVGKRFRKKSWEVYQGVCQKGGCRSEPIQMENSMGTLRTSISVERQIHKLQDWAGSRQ

NES-Venus-mGsq (Venus-tagged mini G protein)
pEC50 of BK (ligand-induced BRET) [1]: 7.73

B1: Rluc8-tagged GRK2 (GRK2-Rluc8) (enzyme, UniProt P25098 1-689, looked up)
chain: MADLEAVLADVSYLMAMEKSKATPAARASKKILLPEPSIRSVMQKYLEDRGEVTFEKIFSQKLGYLLFRDFCLNHLEEARPLVEFYEEIKKYEKLETEEERVARSREIFDSYIMKELLACSHPFSKSATEHVQGHLGKKQVPPDLFQPYIEEICQNLRGDVFQKFIESDKFTRFCQWKNVELNIHLTMNDFSVHRIIGRGGFGEVYGCRKADTGKMYAMKCLDKKRIKMKQGETLALNERIMLSLVSTGDCPFIVCMSYAFHTPDKLSFILDLMNGGDLHYHLSQHGVFSEADMRFYAAEIILGLEHMHNRFVVYRDLKPANILLDEHGHVRISDLGLACDFSKKKPHASVGTHGYMAPEVLQKGVAYDSSADWFSLGCMLFKLLRGHSPFRQHKTKDKHEIDRMTLTMAVELPDSFSPELRSLLEGLLQRDVNRRLGCLGRGAQEVKESPFFRSLDWQMVFLQKYPPPLIPPRGEVNAADAFDIGSFDEEDTKGIKLLDSDQELYRNFPLTISERWQQEVAETVFDTINAETDRLEARKKAKNKQLGHEEDYALGKDCIMHGYMSKMGNPFLTQWQRRYFYLFPNRLEWRGEGEAPQSLLTMEEIQSVEETQIKERKCLLLKIRGGKQFILQCDSDPELVQWKKELRDAYREAQQLVQRVPKMKNKPRSPVVELSKVPLVQRGSANGL
notes: GPCR kinase 2 (GRK2); construct synthesized by GeneArt; also called GPCR kinase 2; source: HEK293FT, transiently transfected, in live cells
pEC50 of BK (ligand-induced BRET) [2]: 7.35
